Test results published in US20240109974A1 (SHANDONG SIMCERE BIOPHARMACEUTICAL, published 2024).

T1: human TNFR2 on the surface of CHO-TNFR2 cells (human, UniProt P20333 23-461)
T1 construct: whole, on cells
T1 sequence (looked up): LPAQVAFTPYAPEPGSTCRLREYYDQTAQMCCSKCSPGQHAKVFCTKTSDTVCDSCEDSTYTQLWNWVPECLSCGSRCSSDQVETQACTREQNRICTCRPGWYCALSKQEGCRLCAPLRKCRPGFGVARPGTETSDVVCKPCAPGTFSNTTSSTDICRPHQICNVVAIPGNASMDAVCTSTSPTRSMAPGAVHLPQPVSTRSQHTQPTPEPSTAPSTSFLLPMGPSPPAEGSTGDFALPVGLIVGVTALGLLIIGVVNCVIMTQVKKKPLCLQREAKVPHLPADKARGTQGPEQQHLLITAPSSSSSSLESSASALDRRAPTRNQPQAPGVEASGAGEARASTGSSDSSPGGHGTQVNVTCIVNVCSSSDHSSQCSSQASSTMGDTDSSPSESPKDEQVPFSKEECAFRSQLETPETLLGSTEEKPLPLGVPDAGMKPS

T2: Cynomolgus TNFR2-His (Sino 90102-C08H) (cynomolgus monkey, UniProt A0A2K5VET2 132-366)
T2 construct: Bought protein; also called cynomolgus monkey TNFR2; recombinant cynomolgus monkey TNFR2 protein; not shown: His tag
T2 sequence: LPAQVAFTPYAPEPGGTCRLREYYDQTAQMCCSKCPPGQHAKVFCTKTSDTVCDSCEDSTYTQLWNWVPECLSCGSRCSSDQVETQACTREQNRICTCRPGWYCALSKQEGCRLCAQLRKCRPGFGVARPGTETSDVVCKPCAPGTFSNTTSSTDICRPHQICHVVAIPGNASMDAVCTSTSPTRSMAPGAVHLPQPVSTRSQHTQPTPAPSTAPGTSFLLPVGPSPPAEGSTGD


How the values were obtained:
[1] = molecular target: T1, human TNFR2 on the surface of CHO-TNFR2 …; experiment: flow cytometry on CHO-TNFR2 cells; area under the MFI fold curve
Protocol: The transfected full-length plasmid of human TNFR2 was purchased from Sino Biological (Cat #HG10417-UT, NCBI Ref Seq: NM_001066.2). The experiment was conducted at a cell density within 80%. The cell medium was discarded; the cells were rinsed with PBS, and digested with 1 ml trypsin for 2 minutes; the digestion was stopped with a Ham's F12 complete medium containing 10% FBS, and then a cell suspension was made. The cell suspension was counted, and then an appropriate amount of cell suspension was centrifuged at 350×g; the supernatant was discarded; a corresponding volume of blocking solution (10% FBS+PBS) at a density of 1×10⁷ cells/ml was added to resuspend the cells, and the mixture was incubated at 4° C. for 30 minutes. After the incubation, the mixture was centrifuged at 350×g to remove the supernatant, and the cells were resuspended in a staining buffer (2% FBS+PBS) to a density of 2×10⁶ cells/ml, and spread onto a 96-well plate, with 50 μl of cell suspension added to each well for later use. The antibody was diluted with PBS for 10-fold gradient dilution from the highest concentration of 20 μg/m (twice the concentration); the diluted antibody was added to the well containing 50 μl of cell suspension, and placed on a microplate shaker for shaking at 500 rpm for 1 minute, so that the antibody was fully mixed with the cells; the mixture was incubated at 4° C. for 1 h. After the incubation, the cells were washed twice with the staining buffer, with 100 μl per well, and centrifuged at 350-g for 5 minutes, and the supernatant was discarded. The PE goat anti-Human IgG Fc antibody (ebioscience, Cat #12-4998-82) was diluted 250-fold with the staining buffer, with a volume of 100 μl per well added to the washed cell wells; the mixture was mixed evenly, and stained at 4° C. for 30 minutes. After the staining, similarly, the cells were washed twice with the staining buffer; finally, the cells were resuspended in 200 μl of staining buffer; signals were detected by a flow cytometer (Thermo Attune NxT). The stronger the signal, the stronger the binding ability of an antibody to TNFR2. The binding curve of an antibody was drawn with antibody concentration as the abscissa and corresponding mean fluorescence intensity (MFI) fold as the ordinate, and fitted with four parameters (GraphPad Prism9) to calculate the EC50 value.

[2] = molecular target: T2, Cynomolgus TNFR2-His (Sino 90102-C08H); experiment: ELISA, cynomolgus TNFR2-His coated
Protocol: The test humanized antibody against TNFR2 (as described in Example 1, the antibody was comprised of variable regions linked to IgG-Fc; the WT chimeric antibody also adopted the IgG-Fc structure) was subjected to 3.33-fold gradient dilution, loaded with 100 μl/well, and incubated with shaking at room temperature for 1.5 hours. The plate was washed, and then a working solution of murine anti-human IgG Fc-HRP (diluted at 1:10000) was added, loaded with 100 μl/well, and incubated with shaking at room temperature for 1.0 hour. The plate was washed again, and then the substrate TMB of HRP was added to develop colour. A stop solution was added to stop the reaction, and then a microplate reader (MD 13) was used to read the absorbance value. The binding curve of an antibody was drawn with antibody concentration as the abscissa and corresponding OD value as the ordinate, and fitted with four parameters (GraphPad Prism9) to calculate the EC50 value. The smaller the EC50 value, the stronger the binding ability of an antibody to human/cynomolgus monkey TNFR2. The binding effect of a humanized antibody was normalized to its corresponding human-murine chimeric antibody WT (see SEQ ID NOs: 38-43 for the sequence). The higher the percentage value, the better the binding effect of the humanized antibody. The results of binding of an anti-TNFR2 antibody to a human TNFR2 protein are shown in FIG. 1 and Table 4, and the results of binding of an anti-TNFR2 antibody to cynomolgus monkey TNFR2 are shown in FIG. 2 and Table 4.

Row | Binder | AUC [1] | EC50 [2]
1 | 219-Hu3 (antibody, V domains shown, also called VH5 + VL5) VH: QVQLVQSGAEVKKPGSSVKVSCKASGYSFTNYWMNWVRQAPGQGLEWMGMIHPSDTETRLNQNFKDRVTITADKSTSTAYMELSSLRSEDTAVYYCARGEGLGAARSVSMDYWGQGTLVTVSS VL: DIQMTQSPSSLSASVGDRVTITCRASQDISNYLNWYQQKPDGTVKLLIYYTAILHSGVPSRFSGSGSGTDYSLTISSLQPEDFATYFCQQGNTLPWTFGQGTKVEIK | 497 | 0.0127 µg/mL
2 | 001-Hu5 (antibody, V domains shown, Humanized form of #001; also called VH1 + VL4) VH: EVQLVESGGGLVQPGGSLRLSCAASGFAFSTYDLSWVRQAPGKGLEWVAYINNGGISTYYSDTVKGRFTISRDNAKNTLYLQMNSLRAEDTAVYYCVRGPFYGSANYFDYWGQGTLVTVSS VL: DIQMTQSPSSLSASVGDRVTITCRTSESIYSNLPWYQQKPGKSPKLLVYDATKLAEGVPSRFSGSGSGTDYTLTISSLQPEDFATYYCQHFWVTPWTFGQGTKVEIK | 431 | 0.00988 µg/mL
3 | 001-Hu1 (antibody, V domains shown, Humanized form of #001; also called VH1 + VL1) VH: EVQLVESGGGLVQPGGSLRLSCAASGFAFSTYDLSWVRQAPGKGLEWVAYINNGGISTYYSDTVKGRFTISRDNAKNTLYLQMNSLRAEDTAVYYCVRGPFYGSANYFDYWGQGTLVTVSS VL: DIQMTQSPSSLSASVGDRVTITCRTSESIYSNLPWYQQKPGKAPKLLLYDATKLAEGVPSRFSGSGSGTDYTLTISSLQPEDFATYYCQHFWVTPWTFGQGTKVEIK | 458 | 0.00962 µg/mL
4 | 001-Hu4 (antibody, V domains shown, Humanized form of #001; also called VH2 + VL4) VH: EVQLVESGGGLVQPGGSLRLSCAASGFAFSTYDLSWVRQAPGKGLEWVAYINNGGISTYYSDTVKGRFTISRDNAKNSLYLQMNSLRAEDTAVYYCVRGPFYGSANYFDYWGQGTLVTVSS VL: DIQMTQSPSSLSASVGDRVTITCRTSESIYSNLPWYQQKPGKSPKLLVYDATKLAEGVPSRFSGSGSGTDYTLTISSLQPEDFATYYCQHFWVTPWTFGQGTKVEIK | 452 | 0.00927 µg/mL
5 | 001-Hu3 (antibody, V domains shown, Humanized form of #001; also called VH1 + VL3) VH: EVQLVESGGGLVQPGGSLRLSCAASGFAFSTYDLSWVRQAPGKGLEWVAYINNGGISTYYSDTVKGRFTISRDNAKNTLYLQMNSLRAEDTAVYYCVRGPFYGSANYFDYWGQGTLVTVSS VL: DIQMTQSPSSLSASVGDRVTITCRTSESIYSNLPWYQQKPGKAPKLLIYDATKLAEGVPSRFSGSGSGTDYTLTISSLQPEDFATYYCQHFWVTPWTFGQGTKVEIK | 431 | 0.0099 µg/mL
6 | 001-Hu2 (antibody, V domains shown, Humanized form of #001; also called VH2 + VL2) VH: EVQLVESGGGLVQPGGSLRLSCAASGFAFSTYDLSWVRQAPGKGLEWVAYINNGGISTYYSDTVKGRFTISRDNAKNSLYLQMNSLRAEDTAVYYCVRGPFYGSANYFDYWGQGTLVTVSS VL: DIQMTQSPSSLSASVGDRVTITCRTSESIYSNLPWYQQKPGKSPKLLIYDATKLAEGVPSRFSGSGSGTDFTLTISSLQPEDFATYYCQHFWVTPWTFGQGTKVEIK | 433 | 0.00914 µg/mL

More lines, now with the values ahead:

Row | AUC [1] | EC50 [2] | Binder
7 | 516 | – | 219-WT (antibody, V domains shown, Human-murine chimeric wild-type molecule) VH: EVQLQESGAELVRPGASVKLSCKASGYSFTNYWMNWVKQRPGQGLEWIGMIHPSDTETRLNQNFKDKATLTVDKSSSTSYMQLSSPTSEDSAVYYCARGEGLGAARSVSMDYWGQGTTVTVSS VL: DILMTQSPSSLSASLGDRVTISCRASQDISNYLNWYQQKPDGTVKVLIYYTAILHSGVPSRFSGSGSGTDYSLTISNLEQEDIATYFCQQGNTLPWTFGGGTKLEIK
8 | 481 | 0.0122 µg/mL | 219-Hu5 (antibody, V domains shown, also called VH7 + VL5) VH: QVQLVQSGAEVKKPGSSVKVSCKASGYSFTNYWMNWVRQAPGQGLEWMGMIHPSDTETRLNQNFKDRVTITVDKSTSTAYMELSSLRSEDTAVYYCARGEGLGAARSVSMDYWGQGTLVTVSS VL: DIQMTQSPSSLSASVGDRVTITCRASQDISNYLNWYQQKPDGTVKLLIYYTAILHSGVPSRFSGSGSGTDYSLTISSLQPEDFATYFCQQGNTLPWTFGQGTKVEIK
9 | 565 | 0.0148 µg/mL | 219-Hu1 (antibody, V domains shown, also called VH3 + VL5) VH: QVQLVQSGAEVKKPGASVKVSCKASGYSFTNYWMNWVRQAPGQRLEWMGMIHPSDTETRLNQNFKDRVTITRDTSASTAYMELSSLRSEDTAVYYCARGEGLGAARSVSMDYWGQGTLVTVSS VL: DIQMTQSPSSLSASVGDRVTITCRASQDISNYLNWYQQKPDGTVKLLIYYTAILHSGVPSRFSGSGSGTDYSLTISSLQPEDFATYFCQQGNTLPWTFGQGTKVEIK
10 | 493 | 0.0123 µg/mL | 219-Hu4 (antibody, V domains shown, also called VH6 + VL5) VH: QVQLVQSGAEVKKPGSSVKVSCKASGYSFTNYWMNWVKQAPGQGLEWIGMIHPSDTETRLNQNFKDKATLTVDKSTSTAYMELSSLRSEDTAVYYCARGEGLGAARSVSMDYWGQGTLVTVSS VL: DIQMTQSPSSLSASVGDRVTITCRASQDISNYLNWYQQKPDGTVKLLIYYTAILHSGVPSRFSGSGSGTDYSLTISSLQPEDFATYFCQQGNTLPWTFGQGTKVEIK
11 | 534 | 0.0113 µg/mL | 219-Hu2 (antibody, V domains shown, also called VH4 + VL5) VH: QVQLVQSGAEVKKPGSSVKVSCKASGYSFTNYWMNWVRQAPGQGLEWMGMIHPSDTETRLNQNFKDKATITADKSTSTAYMELSSLRSEDTAVYYCARGEGLGAARSVSMDYWGQGTLVTVSS VL: DIQMTQSPSSLSASVGDRVTITCRASQDISNYLNWYQQKPDGTVKLLIYYTAILHSGVPSRFSGSGSGTDYSLTISSLQPEDFATYFCQQGNTLPWTFGQGTKVEIK
12 | 490 | – | 001-WT (antibody, V domains shown, Human-murine chimeric wild-type molecule; also called human-murine chimeric antibody WT of #001) VH: EVQLQESGGGLVQPGGSLNLSCAASGFAFSTYDLSWVRQTPEKRLEWVAYINNGGISTYYSDTVKGRFTISRDNAKNTLYLQMSSLKSEDTAMYYCVRGPFYGSANYFDYWGQGTTVTVSS VL: EIVMTQSPASLSLSVGETVTITCRTSESIYSNLPWYQQKQGKSPQLLVYDATKLAEGVPSRFSGSESGTQYSLKINSLQSEDFGTYYCQHFWVTPWTFGGGTKLEIK
13 | 667 | – | 224-WT (antibody, V domains shown, Human-murine chimeric wild-type molecule; also called human-murine chimeric antibody WT of #224) VH: EVQLQESGPEIVKPGASVKLSCTASGFNNKDIYMHWVKQRPEQGLEWIGRIDPATGNTKHDPKFQDKATLSSDTSSNTAYLQFSSLTSEDTAVYYCAHSPYGDFGAMDYWGQGTTVTVSS VL: DIQMTQSPAIMSASLGERVTMTCTASSSVSSNYLHWYQQKPGSSPKLWIYSTSNLPSGVPARFSGSGSGTSYSLTISSMEAEDAATYYCHQYHRSPWTFGGGTKLEIK
